The target of test [1] is T1, human IL-33 (R&D Systems, #3625-IL-010/CF) (human, UniProt O95760 112-270).
T1 construct: Commercial recombinant protein; also called hIL-33; interleukin-33
T1 sequence (looked up): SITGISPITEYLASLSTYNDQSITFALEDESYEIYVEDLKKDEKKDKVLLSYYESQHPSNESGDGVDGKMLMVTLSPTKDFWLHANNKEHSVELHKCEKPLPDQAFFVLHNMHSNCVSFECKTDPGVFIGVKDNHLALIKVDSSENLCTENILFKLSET
Kind of test: BLI; hIL-33 pre-mixed with mAb-2 Isotype control 2. On the procedure: Binding competition between a panel of different anti-IL-33 monoclonal antibodies was determined using a real time, label-free bio-layer interferometry assay on an Octet® HTX biosensor (ForteBio, A Division of Pall Life Sciences). The experiment was performed at 25° C. using a buffer of 0.01M HEPES pH7.4, 0.15M NaCl, 0.05% v/v Surfactant Tween-20, and 0.1 mg/ml BSA (HBS-ET kinetics buffer) with the plate shaking at a speed of 1000 rpm. To assess whether two antibodies were able to compete with one another for binding to human IL-33, a pre-mix assay format was used where 100 nM of human IL-33 (R&D Systems; #3625-IL-010/CF) was pre-mixed with 500 nM of different anti-IL-33 monoclonal antibodies (subsequently referred to as mAb-2) for at least 2 hours prior to running the binding competition assay. […] Following the capture step, unoccupied anti-mouse Fc polyclonal antibody and anti-human Fc polyclonal antibody on the Octet biosensors were saturated by submerging them for 4 minutes into wells containing 200 μg/mL of a non-specific monoclonal antibody with a mouse Fc or with a human Fc, respectively. Finally, the Octet biosensors were immersed for 4 minutes into wells containing the pre-mixed samples of 100 nM of human IL-33 and 500 nM of mAb-2. At the end of each cycle, the non-covalently captured anti-IL-33 antibodies along with the bound pre-complex of human IL-33 and mAb-2 were removed from the biosensors using three alternate 20 second immersions into 10 mM HCl followed by submerging into HBS-ET kinetics buffer. The biosensors were washed in HBS-ET kinetics buffer in between every step of the experiment. The real-time binding response was monitored during the binding events, and the binding response (in units of nm) at the end of every step was recorded.

The target in test [2] is T1, human IL-33 (R&D Systems, …). Nature of the test: cell-based or functional assay.

B1: H4H9670P (antibody, V domains shown)
VH: EVQLVESGGGLVQPGGSLRLSCAASGFTLSSYAMSWVRQAPGKGLEWVSAISGSGGSTYYADSVKGRFTISRDNSKNSLYLQLNSLRAEDTAVYYCAKTLYTTSWYGGFQHWGQGTLVTVSS
VL: DIQMTQSPSSVSASIGDRVTITCRASQGISSWLAWYQQKPGKVPKLLIYAASSLQSGFPSRFSGSGSGTDFTLTISSLQPEDFATYYCQQTHSFPWTVGQGTKVEIK
notes: Human IgG4 Fc (H4H)
As for B1, in test [1], the “mAb-1 Binding to the Pre-complex of mAb-2 & hIL-33” value (shortened to “mAb-1 Binding to the Pre-complex”) turned out to be 0.12 nm.

B2: H1M9565N (antibody, mouse IgG1, V domains shown)
VH: QVTLKESGPVLVKPTESLTLTCSVSGFSLSNVRMGVSWIRQSPGKALEWLAHIFSNDEKSYTTSLKTRLTISKDTSRSQVVLTMTDMDPGDTATYYCARIRNLAFNYWGQGTLVTVSS
VL: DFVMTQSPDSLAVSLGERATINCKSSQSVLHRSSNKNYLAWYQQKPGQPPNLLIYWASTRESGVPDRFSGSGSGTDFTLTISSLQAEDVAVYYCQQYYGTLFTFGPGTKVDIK
notes: Human variable domains, mouse IgG1 Fc (H1M)
Consider B2, for which, in test [1], the “mAb-1 Binding to the Pre-complex” value came out at 0.03 nm.

B3: H4H9629P (antibody, human IgG4, V domains shown)
VH: EVQLVESGGGLVQPGGSLRLSCAASGFTFRSFAMSWVRQAPGKGLELVSDLRTSGGSTYYADSVKGRLTISRDNSKNTLYLQMNSLRAEDTAVYYCAKSHYSTSWFGGFDYWGQGTLVTVSS
VL: DIQMTQSPSSVSASVGDRVTITCRASQGFSSWLAWYQQKPGKAPKLLIYAASSLQSGVPSRFSGSGSGTDFTLTITNLQPEDFATYYCQQANSFPLTFGGGTKVEIK
notes: Human IgG4 Fc (H4H)
In the case of B3, in test [2], the “IC50, blocking of IFN-γ release from human PBMC induced by 260 pM hIL-33, donor #603486” value (from here on “IC50, blocking of IFN-γ release … donor #603486”) was 8.15e-10 M and the “IC50, blocking of IFN-γ release from human PBMC induced by 260 pM hIL-33, donor #603487” value (“IC50, blocking of IFN-γ release … donor #603487” below) is 5.21e-09 M. Also, the “mAb-1 Binding to the Pre-complex” value in test [1] worked out at 0.14 nm.

B4: H1M9559N (antibody, mouse IgG1, V domains shown)
VH: QVQLVESGGGVVQPGRSLRLSCAASGFTFSSYGMHWVRQAPGKGLEWVAVIWYDGRNKYYTDSVKGRFTISRDNSKNTLYLQMDSLRAEDTAVYYCARERYISSYYGGFDPWGQGALVTVSS
VL: DIQMTQSPSSVSASVGDRVTITCRASQGISSWLAWYQQKPGKAPKVLIYAASSLQSGVPSRFSGSGSGTDFTLTISSLQPEDFATYYCQQANSFPFTFGPGTKLDIK
notes: as for B2
B4: in test [1], the “mAb-1 Binding to the Pre-complex” value came out at 0.11 nm.

B5: H4H9664P (antibody, human IgG4, V domains shown)
VH: QVQLVESGGGVVQPGRSLRLSCAASGFTFSSYGLHWVRQSPGKGLEWVALISYDGSNKYYADSVKGRFTISRDNSKNTLYLQMNSLRPEDTAGYFCAKSLYTTSWYGGFDYWGQGTLVTVSS
VL: DIQMTQSPSSVSASVGDRVTITCRASQGIRSWLAWYQQKPGKAPNLLIYAASSLQSGVPSRFSGSGSGTDFTLTISSLQPEDFATYYCQQANSFPPTFGPGTKVDIK
notes: Human IgG4 Fc (H4H)
Consider B5, for which, in test [2], the “IC50, blocking of IFN-γ release … donor #603486” value amounted to 3.98e-09 M and the “IC50, blocking of IFN-γ release … donor #603487” value is 6.08e-09 M. In test [1], the “mAb-1 Binding to the Pre-complex” value is 0.1 nm.

B6: H4H9667P (antibody, human IgG4, V domains shown)
VH: EVQLVESGGGLVQPGGSLRLSCAASGFTFSTYSMHWVRQAPGKGLEYVSTINNNGDTTYYADSVKGRFTISRDNSKNTLYLQLGSLRPEDMAVYYCARQTYTSSWYGGFDSWGQGTLVTVSS
VL: DIQMTQSPSSVSASVGDRVTITCRASQGITSWLAWYQQKPGKAPKLLIYAASNLQSGVPSRFSGSGSGTDFTLTITSLQPEDFATYYCQQANSLPFTFGPGTKVDIK
notes: Human IgG4 Fc (H4H)
As for B6, in test [2], the “IC50, blocking of IFN-γ release … donor #603486” value stood at 8.07e-09 M and the “IC50, blocking of IFN-γ release … donor #603487” value came to 1.88e-08 M. In addition, the “mAb-1 Binding to the Pre-complex” value in test [1] is 0.12 nm.

B7: H4H9671P (antibody, human IgG4, V domains shown)
VH: EVQLVESGGGLVQPGGSLRLSCAASGFTLRSYFMTWVRQVPGKGLEGVSAISGISGGTYYTDSVKGRFTISRDNSKNTLFLQMNSLRAEDTAVYFCARTVYSSSYYGGFQHWGQGTLVTVSS
VL: DIQMTQSPSSVSVSVGDRVTITCRASQGISSWLAWYQQKPGKAPKLLIYVASSLQSGVPSRFSGSGSGTDFTLTISSLQPEDFATYYCQQTNSFPLTFGGGTKVEIK
notes: Human IgG4 Fc (H4H)
As to B7, in test [2], the “IC50, blocking of IFN-γ release … donor #603486” value is 2.97e-09 M and the “IC50, blocking of IFN-γ release … donor #603487” value was 8.62e-09 M. Further, the “mAb-1 Binding to the Pre-complex” value in test [1] is 0.07 nm.

B8: H4H9660P (antibody, human IgG4, V domains shown)
VH: EVQLVESGGGLVQPGGSLRLSCAASGITLSSYGMSWVRQAPGKGLEWVASIFGSGGGPYYADSVKGRFTMSRDNSKNTLYLQMNSLRAEDTAVYYCAKDRYSGSYYGGFDYWGRGTLVTVSS
VL: DIQMTQSPSSVSASVGDRVTITCRASQGITSWLAWYQQKPGKAPTLLIYAASSLQTGVPSRFSGSGSGTDFTLTISSLQPEHFATYYCQQANSFPPTFGGGTKVEIK
notes: Human IgG4 Fc (H4H)
On to B8, for which, in test [2], the “IC50, blocking of IFN-γ release … donor #603486” value is 6.67e-10 M and the “IC50, blocking of IFN-γ release … donor #603487” value was determined as 2.91e-09 M. For the same molecule, the “mAb-1 Binding to the Pre-complex” value in test [1] turned out to be 0.15 nm.

B9: H4H9666P (antibody, human IgG4, V domains shown)
VH: QVQLVQSGAEVKKPGASVKVSCKASGYTFTSYGISWVRQAPGQGLEWMGWIRAYNGYTNYAQKFQGRVTMTTDTSTNTAYMELRTLNSDDTAVYYCARDRYSGSFHGNFDYWGQGTLVTVSS
VL: DIQMTQSPSSVSASVGDRVTITCRASQGIFSWLAWYQQKPGKAPKVLIYAASNLESGVPSRFSGSGSGTDFTLTISSLQPEDFATYYCQQANSLPLTFGGGTKVEIK
notes: Human IgG4 Fc (H4H)
As to B9, in test [1], the “mAb-1 Binding to the Pre-complex” value was determined as 0.08 nm.

B10: H4H9676P (antibody, human IgG4, V domains shown)
VH: EVQLVESGGGLVQPGGSLRLSCSASGFTFSSYAMNWVRQAPGKGLEWVTAISGSGGGTYYADSVKGRFTISRDNSKNSLFLQLNSLRAEDTAVYYCAKQTYTSSWYGGFDIWGQGTMVTVSS
VL: DIQMTQSPSSVSASVGDRVTITCRASQGFSSWLAWYQQIPGKAPKLLIYAASRLQSGVPSRFRGSGSGTDFTLTISSLQPEDFATYYCQQANSFPLTFGGGTKVEIK
notes: Human IgG4 Fc (H4H)
Regarding B10, the “mAb-1 Binding to the Pre-complex” value in test [1] was 0.1 nm.

B11: H4H9633P (antibody, human IgG4, V domains shown)
VH: EVQLVESGGGLVQPGGSLRLSCAASGFTFSSYVMSWVRQAPGKGLEWVSSISGNGGSTNYADSVKGRFTISRDNSKNTLFLEMNSLRAEDTAVYYCAKSLGTTTTFLGFDYWGQGTLVTVSS
VL: DIQMTQSPSSVSASVGDRVTITCRASQGISSWLAWYQQKPGKAPKLLIYAASSLQSGVPSRFSGSGSGTYFTLTISSLQPEDFATYYCQQANSFPLTFGGGTKVEIK
notes: Human IgG4 Fc (H4H)
For the molecule B11, the “mAb-1 Binding to the Pre-complex” value in test [1] amounted to 0.15 nm.

B12: H4H9672P (antibody, human IgG4, V domains shown)
VH: EVQLVESGGGLVQPGGSLRLSCAASGFTLRSYVMYWVRQGPGKGLEGVSGISGSSGGTYYTDSVKGRFTISRDNSKNTLFLQMNSLRAEDTAVYFCARSVYSTTWYGGFQHWGQGTLVTVSS
VL: DIQMTQSPSSVSVSVGDRVTITCRASQVISSWLAWYQLKPGKAPKLLIYAASSLQSGVPSRFSGSGSGTDFTLTISGLQPEDFAVYYCQQTNSFPLTFGGGTKVEIK
notes: Human IgG4 Fc (H4H)
With B12, the “mAb-1 Binding to the Pre-complex” value in test [1] was 0.08 nm.

B13: H4H9663P (antibody, human IgG4, V domains shown)
VH: QVQLVQSGAEVKKPGASVKVSCKASGYTFTGHYMYWMRQAPGQGLEWMGWINPNSGGTNYAQKFQDRVTMTRDTSISTAYMELSRLRSDDTAVYYCARGRYGSSWYGGFEYWGQGTLVTVSS
VL: DIQMTQSPSSVSASVGDRVTITCRASQGITSWLAWYQQKPGKAPNLLIYAAASLQSGVPSRFSGSGSGTDFTLTISSLQPEDFTTYYCQQAYSLPLTFGGGTKVEIK
notes: Human IgG4 Fc (H4H)
On to B13, for which, in test [2], the “IC50, blocking of IFN-γ release … donor #603486” value amounted to 1.24e-08 M and the “IC50, blocking of IFN-γ release … donor #603487” value was 2.2e-08 M. For the same molecule, the “mAb-1 Binding to the Pre-complex” value in test [1] came to 0.09 nm.

B14: H1M9568N (antibody, mouse IgG1, V domains shown)
VH: QVLLVQSGAEVKKPGATVKVSCKASGSTFTGYYMHWVRQAPGQGLEWMGWINPNNGGTNYAQKFQGRVTMTRDTSISTAYMELSRLRSDDTAVYYCARELRYNWKSWGQGTLVTVSS
VL: EIVLTQSPGTLSLSPGERVTLSCRASQSVGRPYLAWYQQIPGQAPRLLIYGASSRATDIPDRFSGNGSGTDFTLTISRLEPEDFAVYYCQQYDNSPYTFGQGTRLEIK
notes: as for B2
In the case of B14, the “mAb-1 Binding to the Pre-complex” value in test [1] came out at 0.1 nm.

B15: H4H9640P (antibody, human IgG4, V domains shown)
VH: QVQLQESGPGLVKPSETLSLTCTVSGGSISSYYWSWIRQPPGKGLELIGYIYYSGSTNYNPSLKSRVTISVDTSKNHFSLKLSSVTAADTAVYYCARSQYTSSWYGSFDIWGQGTMVTVSS
VL: DIQMTQSPSSVSASVGDRVTITCRASQGISTWLAWFQQKPGKAPKLLIYAASTLQGGVPSRFSGSGSGPEFTLTISSLQPEDFATYYCQQANSFPWTFGQGTKVEIK
notes: Human IgG4 Fc (H4H)
For the molecule B15, in test [2], the “IC50, blocking of IFN-γ release … donor #603486” value was 4.42e-09 M and the “IC50, blocking of IFN-γ release … donor #603487” value was 1.22e-08 M. Also, in test [1], the “mAb-1 Binding to the Pre-complex” value is 0.1 nm.
